Consider 26 substances from the array DNA melting data of Ke et al..

The nature of the data set: melting temperature; melt of duplexes. Conditions: sodium 0.0675 M; strand 1 µM.
With “CGACGTGCTAAATGTGCTG+CAGCACATGCTGCACGTCG ((((((((...((((((((+))))))))...))))))))”, the Tm (as a rule, the temperature at which the thermal transition is half complete) worked out at 50.1 °C.

Take “CGACGTGCCTGATGTGCTG+CAGCACATGACGCACGTCG ((((((((.(.((((((((+)))))))).).))))))))”: the Tm was determined as 44.5 °C. In the case of “CGACGTGCCCAATGTGCTG+CAGCACATCTGGCACGTCG (((((((((..((((((((+))))))))..)))))))))”, the Tm was determined as 53.8 °C. As for “CGACGTGCAGGATGTGCTG+CAGCACATGCCGCACGTCG ((((((((.(.((((((((+)))))))).).))))))))”, the Tm amounted to 54 °C. As for “CGACGTGCGCCATGTGCTG+CAGCACATATGGCACGTCG ((((((((...((((((((+))))))))...))))))))”, the Tm was found to be 48.1 °C. The value for “CGACGTGCTTTATGTGCTG+CAGCACATGAGGCACGTCG ((((((((.(.((((((((+)))))))).).))))))))” was 52.8 °C. Consider “CGACGTGCTGAATGTGCTG+CAGCACATCGGGCACGTCG ((((((((...((((((((+))))))))...))))))))”, for which the Tm stood at 50.9 °C. Consider “CGACGTGCCGGATGTGCTG+CAGCACATTATGCACGTCG ((((((((...((((((((+))))))))...))))))))”, for which the Tm is 49.7 °C. As for “CGACGTGCCTGATGTGCTG+CAGCACATATGGCACGTCG (((((((((..((((((((+))))))))..)))))))))”, the Tm is 55.8 °C. In the case of “CGACGTGCCCTATGTGCTG+CAGCACATCAGGCACGTCG (((((((((..((((((((+))))))))..)))))))))”, the Tm was 53.8 °C.

With “CGACGTGCAAGATGTGCTG+CAGCACATGTCGCACGTCG ((((((((.(.((((((((+)))))))).).))))))))”, the Tm turned out to be 51.3 °C. With “CGACGTGCCCAATGTGCTG+CAGCACATAGCGCACGTCG ((((((((.(.((((((((+)))))))).).))))))))”, the Tm was 48.9 °C. As for “CGACGTGCGGAATGTGCTG+CAGCACATTTTGCACGTCG ((((((((..(((((((((+)))))))))..))))))))”, the Tm was determined as 55.2 °C. Turning to “CGACGTGCTGGATGTGCTG+CAGCACATCTAGCACGTCG (((((((((.(((((((((+))))))))).)))))))))”, the Tm was 60 °C. The value for “CGACGTGCAGAATGTGCTG+CAGCACATCCAGCACGTCG ((((((((.(.((((((((+)))))))).).))))))))” was 51.6 °C; that for “CGACGTGCCGTATGTGCTG+CAGCACATAACGCACGTCG ((((((((..(((((((((+)))))))))..))))))))” was 52.6 °C; that for “CGACGTGCGGGATGTGCTG+CAGCACATCTAGCACGTCG ((((((((..(((((((((+)))))))))..))))))))” was 57.8 °C. Consider “CGACGTGCTCAATGTGCTG+CAGCACATAAAGCACGTCG (((((((((..((((((((+))))))))..)))))))))”, for which the Tm was determined as 52.1 °C.

As for “CGACGTGCGCGATGTGCTG+CAGCACATGCCGCACGTCG (((((((((..((((((((+))))))))..)))))))))”, the Tm turned out to be 55.9 °C. Regarding “CGACGTGCTTAATGTGCTG+CAGCACATATAGCACGTCG (((((((((..((((((((+))))))))..)))))))))”, the Tm came to 54.2 °C.

Consider “CGACGTGCTACATGTGCTG+CAGCACATTGTGCACGTCG ((((((((...((((((((+))))))))...))))))))”, for which the Tm worked out at 48.7 °C. As to “CGACGTGCATGATGTGCTG+CAGCACATCGAGCACGTCG ((((((((..(((((((((+)))))))))..))))))))”, the midpoint of thermal melting (Tm) is 56.1 °C. Consider “CGACGTGCAGGATGTGCTG+CAGCACATGGAGCACGTCG ((((((((...((((((((+))))))))...))))))))”, for which the Tm came to 50.3 °C.

Turning to “CGACGTGCGGTATGTGCTG+CAGCACATCCAGCACGTCG ((((((((.(.((((((((+)))))))).).))))))))”, the Tm came to 55.1 °C. Turning to “CGACGTGCGTCATGTGCTG+CAGCACATGAGGCACGTCG ((((((((.((((((((((+)))))))))).))))))))”, the Tm amounted to 60.7 °C. With “CGACGTGCCCAATGTGCTG+CAGCACATAGTGCACGTCG ((((((((.(.((((((((+)))))))).).))))))))”, the midpoint of thermal melting (Tm) was found to be 46.2 °C.
